Test: yeast display, Sf9 membrane polyspecificity reagent, FACS + sequencing; frameworks hold sequencing errors
Outline: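 Using colony PCR, genes from sorted yeast display clones were amplified, then sequenced on MiSeq at 2 × 250 and filtered by CDR length. The clones had been stained with 10% biotinylated, detergent-solubilized Sf9 membrane reagent for 1 hour at 4 °C and sorted by FACS into low and high (top ~1%) gates on anti-HA and streptavidin fluorescence. Polyreactivity labels come from the gate of origin.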

| Sequence | polyreactivity (PSR sort gate) |
| --- | --- |
| QVQLVESGGGLVQAGGSLRLSCAASGSIFPYNAMGWYRQAPGKERELVATISSGGSTNYADSVKGRFTISRDNAKNTVYLQMNSLKPEDTAVYDCAADVIVFYYAPNYWGDIGYGYWGQGTQVTVSS | low polyreactivity |
| QVQLVESGGGLVQAGGSLRLSCAASGFIFSKNAMGWYRQAPGKERELVARITRRVGSTYYADSVKGRFTISRDNAKNTVYIQMNSLKPEDTAVYYCAVLPRVKDGTGGDYWGQGTQVTVSS | high polyreactivity |
| QVQLVESGGGLDQAGGSLRLSCAASGIIFAANAMGWSRQAPGKERELVAAISKNGGITYYADSVQGRFTISRDNAKNTVDLQRNSLKPEDTAVYYCAARWRQTRSYYYWGQGTQVNVSS | high polyreactivity |
| QVQLVESGGGLVQAGGSLRLSCAASGSIFYSNVMGWYRQAPGKERELVAAIRYSGVGTYYADSVKGRFTISRDNAKNTVYLLMNSLKPEDTAVYYCNAVTKVGYLRRRDYWGQGTKVTVSS | low polyreactivity |
| QVHLVESGGGLVQAGGSLRLSCAASGRILSLYAMGWYRQAPGKERELVASINWSDGSTYYADSVKGRFTISRDNAKNTVYLQMNSLKPEDTAVYYCNVDVSSYVAGYDYWGQGTQVTVSS | low polyreactivity |
| QVQLVESGGGLVQAGGSLRLSCAASGFTFRDNAMGRYRQAPGKERELVAAITWDGGSTYYADSVKGRFTISRDNEKNTVYLQMNSLKPEDTAVYYCAASRYYPRYFKRYYYWGQGTQVTVSS | high polyreactivity |
| QVQLVESGGVLVQAGGSLRLSCAASGSTFVYNAMGWYRQAPGKESEFVAAISGSGGSTYYADSVKGRFTISRDIAKNTVYLQMNSLKPDDTAVYYCATAGRYGRYRTYPYRSKYDYWGQGTQVTVSS | high polyreactivity |
| QVQLVESGGGLVQAGGSLSLSCAASGRIFADNAMGWYRQSPGKESELVADITYSGGSTYYAESVKGRFTISRDNAKNTLYLQMNSLNPEDTAFYYCAKQCVDYWGQGTQVTVSS | low polyreactivity |
| QVQLVESGGGLVQAGGSLRLSCAASGIIFPYYAMGWYRPAPGKERELVAASTGRGTSTYADSVKGRFTISRDNAKNTVYLQMNSRKPEDTAVYYCAAVGWFADFLFSDINGYYWGQGTQVTVSS | low polyreactivity |
| QDQLVESGGGLVQAGCSLRLSCAASGLIFGWYAMGWYRQAPGKERELVASISRSGGSTYYADSVKGRFTISRDNAKNTVYLQMNSLITEDTAVYYCAALNYVFRLTYGYDYWGQGTQVTVSS | high polyreactivity |
| QVQLVESGGGLVQAGGILRLSCAASGSTFYRNAMGWYRQEPGKEREFVAAISFRGGGTYADSVKGRFTISRDNAKNTVYLQMNSLKPEDSAVYYCAAESKPRWYVRYDYWGQGTQVTVSS | low polyreactivity |
| QVQLVESGGGLVQAGGSLRLSCAASGYTFSDNAMGWYRQAPGKERELVAAITSGVSTYYADSVKGRFTISRDNAKNTVYLQMNSLKPEDTAVYYCAKDVAVYADLYQGAPYGYWGQGTQVTVSS | low polyreactivity |
| QVQLVESGGGLVQAGGSLRLSCAASGFTFNFYAMGWYRQAPGKESELVASITSSGARTYYADSVKGRFTISSDNPKNTVYLQMNSLKPEDTAVYYCAARVYRYSASRAYDYWGQGTQVTVSS | high polyreactivity |
| QVQLVESGGGLVQAGGSLRLSCAASGRTFSYYAMGWYRQAPGKERELVAAISSGGSTYYADSVKGRFTISRDNAKNTVYLQMNSLKTEVSEVYYCAKSYYRYQVSSRMYYRGQGTQVTVSS | high polyreactivity |
| QVQLQESGGGLVQAGGDLRLSCAASGNIFRDYIMGWNPQAPGKEREFVAGIDRGANTNYADSVKGRFTISRDNAKNTVYLQMNSLKPEDTAVYYCAVHTAIVPDFIYWGQGTQVTVSS | low polyreactivity |
| QVQLVESGGGLVQAGGSLRLSCAASGLIFYYYAMGWYRQAPGKEREVVAAISSNGGSTYYADSVKGRFTISRDNAKNTVYLQMNSLKPEDTAVYYCAAGYAYYYWTPYYYWGQGTQVTVSS | high polyreactivity |
| QVQLVESGGGLVQAGGSLRLSCAASGRIFLTKAMGWYRQAPGKERELVADISRGGSTYADSVKGRFTISRDNAKNTVYLQMNSLKPEDTAVYYCAADEYSPGDSRTRYDYWGQGTQVTVSS | low polyreactivity |
| QVQLVESGGGLFQAGGSLRLSCAASGLTFVDNSMGWYRQAPGKEREFVAAITKRGGRTYYADSVKGRFTISRDNAKNTVYLQMTSLKPEDTAVYYCARESGNDSSRRLDYWGQGTQVTVSS | low polyreactivity |
| QVQLVESGGGIVQAGRSLRLTCAASGITFKAYTMGWYRQAPGKERELVATISRGGRTYADSVKGRFTISRDNAKNTVYLQINSLKPEDTAVYYCAADKYWAQNDYWGQGTQVTVSS | low polyreactivity |
| QVQLVESGGGLVQAGGSLRLSCAASGIIIDYYTMGWYRQAPGKERELVAAINKSGGSTYADSVKGRFTISRDNAKNTVYLQMKSLKPEDTAVYYCAAEVDYSDWPEYARKYYYWGQGTQVTVSS | low polyreactivity |
| QVQLVESGGGLVQAGGSLRLSCAASGSIFVGYAMGWYRQAPGKVRELVAAISRRGGSTYYADSVKGRFTISRDNAKNTLYLQMNSLKPEDTAVYYCAARQSTSATSGYYSWGQGTQVTVSS | high polyreactivity |
| QVQLVESGGGLVQAGGSLRLSCAASGFTFPYYAMGWYRQAPGKERDLVARISSGGSTNYADSVKGRFTISRDNAKNTVYLQMNSLKPEDTAVYYCNKVRTVTTYEYWGQGTQVTVSS | high polyreactivity |

| Sequence | polyreactivity (PSR sort gate) |
| --- | --- |
| QVQLVESGGGLVQAGGSLRLSCAASGSTFSKNAMGWYRQAPGKERELVASISTDGDSTYYADSVKGRFTISRDNAKNTVYFQMNSLKPEDTAVYYCNVVYYGRTWVPYVWEYDYWGQGTQVTVSS | low polyreactivity |
| QVHLVESGGGLVQAGGSLRLSCAASGSTFAVYAMGWYRQAPWKESELVAGISSRGGRTYYADSVKGRFTISRDNAKNTVYLQMNSLKPEDTAVYYCNVVYTYWRYYRWREYDYWGQGTQVTVSS | high polyreactivity |
| QVQLVESGGGLVQAGGSLRLSCAASGFTFGVYAKGWYRQEPGKEREMVAAISSRRGSTYYADSVKGRFTISRDNAKNTVYLQMNSLKPEDTAVYYCAKRLGNTVGKEDYWGQGTQVTVTS | low polyreactivity |
| QVQLVESGGGLVQAGGSLRLSCAASGFIFRAYTKGWYRQAPGKERELVAAITSSGGRTNYADSVKGRFTISRDNAKNTVYLQMNSLKPEDTAVYYCATVYAKWKQFDYWGQGTQVTVSS | high polyreactivity |
| QVQRVESGGGLVQAGGSLRLSCAASGIIFQSYAMGWYRQAPGKERELVAAISRRGRRTYYADSVKGRFTFSRDNAKNTVDLQMTSLKPEDTAVYYCADRYRYAPYDYWGQGTQVTVSS | high polyreactivity |
| QVQLVESGGGVVQAGGSLRLSCAGSGFIFSYYTMGWYRQAPGKERELVAAITSGGSTNYADSVKGRFTISRDNAKNTVYLQMNSLKPEDTAVYYCNALLWAWTLWGSGYDYWGQGTQVTVSS | low polyreactivity |
| QVQLVESGGGLVQAGGSLRLSCAASGRTFSYNAMGWYRQAPGKERELVAAITWRGSTTYYADSVKGRFTISRDNAKNTVYLQMNSLKPEDTAVYYCAADTGQPYILDYWGQGTQVTVSS | low polyreactivity |
| QVQLVESGGGLVQAGGSLRLSCAASGRTFDHNAMGWYRQAPGKERELVAAINSSGGRTYYADSVKGRFTISRDNAQNTVYLQMNSLQPEDTAVYYCATVNVRGPPYDYWGQGTQVTVSS | high polyreactivity |
| QVQLVESGGGLVQAGGRLRLSCAASGSTLYAYGMGWYRQAPGKERELVAAIRTGGSTYYADSVKGRFTISRDNAKITVYLQMNSLKPEDTAVYYCAADHGYQYGYWGQGTQVTVSS | low polyreactivity |
| QVQLVESGGGLVQAGGSLRLSCADSGNTFPSYVMGWYRQAPGKERELVAAINRGGGTYYADSVKGRFTISRDNAKNTVYLQMNSLKPEDTAVYYCAVRYQRHPNMDYWGQGTQVTVSS | low polyreactivity |
| QVQLVESGVGLVQAGGSLRLICAATGYTFKRTAMRWSRQAPGKEREFVAAINIRGSSTYYADSVKGRFTISRDNPKNTVYLQMISLKPEDTAVYYCNAVTRYGYYWGEGTQVTVSS | high polyreactivity |
| QVQLVESGGGLLQAGGSLRLSCAASGFILNAYTMGWYRQAPGKERELVATITINGGSTYYADSVKGRFTISRDNAKNTVYLQMNSLKPEDTAVYYCNADYWYKYDYWGQGTQVTVSS | low polyreactivity |
| QVQLVESGGGLVQAGGSLRFSSAASGRTFSSNAMGWYIQAPGKERELVAAISNSGSSTYYADSVKGRFTISRDNAKNTVYLQMNSLKPEDSAVYYCNAVGVYYWWYRLYDYWGQGTQVTVSS | high polyreactivity |
| QFQLVESGGGLVQAGGSLRLSCADSGSIFLLYVMGWYRQAPGKERELVAAISSGGSTNYADSVKGRFTISRDNAKNTVYLQMNSLKPEDTAVYYCNAVAVPQGVKLYDYWGQGTQVTVSS | low polyreactivity |
| QVQLVESGGGLLQAGGSLRLSCAASGHIFRGYTMGWYRPAPGKERELVATITWNGVSTFYADSVKGRFTISRDTAKNTVYLQMNSLKPEDTSVYYCAAYYASHDYSGFWSDTYEYWGQGTQVTVSS | low polyreactivity |
| QVQLEESGGGLVQAGGSLRLSWAASGRTIAAYAMGWYRQAPGKERELVAAISIGGSTNYADSVKGRFTISRDNAKNTVYLQMNSLKPEDTAVYYCAAPRRRYLRARIRYEYWGQGTQVTVSS | high polyreactivity |
| QVQLVESGGGLVQAGGSLRLSCAASGRIYGGNAKGWYRQAPGKEREFVAAITWRGGTTYYADSVKGRFTISRDNAKNTVYLQMNSLKPEDTAVYYCNALRYTRNTGYDYWGQGTQVTVSS | high polyreactivity |
| QVQLVESGGGLVQAGGSLRLSCAASGFTLLTYVMGWYRQAPGKERELVAAISKSGSRTYYADSVKGRFTISRDNAKNTVYVQMNSLKPEDTPVYYCAADTSAYRYDYWGQGTQVTVSS | high polyreactivity |
| QVQLVESGGGLVQAGGSLRLSCAASGRIFDVNDMGCYRQAPGKERELVAAITYSGTDTYYADSVKGRITISRDNAKNTVYLQMNSLKPEDTAVYYCAAEFTGWEYIGRDYWGQGTQVTVSS | low polyreactivity |
| QVQLVESGGGLVQAGGSLRLSCAASGSTFGLKAMGWYRQAPGKERELVAAITSGGTYYADSVKGRFTISRDNAKNTVYLQMNSLKPEDTAVYYCAADGTWSIYGGLYYWGQGTQVTVSS | low polyreactivity |
| QVQLVESGGGLVQAGGSLRLSCAASGSTFDVYAMGWYRQAPGKERELVAAITSGGTTNYADSVKGRFTISRDNAKNTVYLQMNSLKPEDTAVYYCAKDSRNVYWDYGYWGQGTQVTVSS | low polyreactivity |

From the nanobody polyreactivity screen of Harvey et al. (2022)
